This data set in a line: soluble on expression in E. coli; label from the status in PepcDB or PDB records.
With “SMGSDDEEQEDPADYCKGGYHPVKIGDLFNGRYHVIRKLGWGHFSTVWLCWDMQGKRFVAMKVVKSAQHYTETALDEIKLLKCVRESDPSDPNKDMVVQLIDDFKISGMNGIHVCMVFEVLGHHLLKWIIKSNYQGLPVRCVKSIIRQVLQGLDYLHSKCKIIHTDIKPENILMCVDDAYVRRMAAEATEWQKAGAPPPSGSAVSTAPAADLLVNPLDPRNADKIRVKIADLGNACWVHKHFTEDIQTRQYRSIEVLIGAGYSTPADIWSTACMAFELATGDYLFEPHSGEDYSRDEDHIAHIIELLGSIPRHFALSGKYSREFFNRRGELRHITKLKPWSLFDVLVEKYGWPHEDAAQFTDFLIPMLEMVPEKRASAGECLRHPWLNS”, the “soluble on expression in E. coli” value is “soluble”.
Next, “MGYNKPAAWKPLDRTDWDVSFSYAYGYDEAQFGGRLAVDGDVSTTWFTWGVVSAGECWWATTLPAPTHLTGFSLTRQTTFGSSYNVREAKVKVKKEGDTEWTEAGLFRFGSFKGNDPQYAVFIPAVENVKEFRIDIVSPADFTGFAELDLYQLEHHHHHH”: “soluble”; “MPITIGNGFLKSEILTNSPRNTKEAWWKVLWEKIKDFFFSTGKAKADRCLHEMLFAERAPTRERLTEIFFELKELACASQRDRFQVHNPHENDATIILRIMDQNEENELLRITQNTDTFSCEVMGNLYFLMKDRPDILKSHPQMTAMIKRRYSEIVDYPLPSTLCLNPAGAPILSVPLDNIEGYLYTELRKGHLDGWKAQEKATYLAAKIQSGIEKTTRILHHANISESTQQNAFLETMAMCGLKQLEIPPPHTHIPIEKMVKEVLLADKTFQAFLVTDPSTSQSMLAEIVEAISDQVFHAIFRIDPQAIQKMAEEQLTTLHVRSEQQSGCLCCFLLEHHHHHH”: “soluble”.
In the case of “MSLPRARSTIAMCLALTALLGACGRSPQECMERAMYFESNRSSRDGMVAVGSVVMNRVESGQYPKSVCGVVGQRFQFAPRIMSRRMDSRSLPLVRETARSVLKGERHPMIGDAMFFHTAGHRFPYDNMHYVLVTGGNAFYERRPSALVTQPVPPQPMEGLTGWRGW”, the “soluble on expression in E. coli” value was “not soluble”.
Under “SSEDLAKQLASYKAQLQQVEAALSGNGENEDLLKLKKDLQEVIELTKDLLSTQPSETLASSDSFASTQPTHSWKVGDKCMAVWSEDGQCYEAEIEEIDEENGTAAITFAGYGNAEVTPLLNLKPVEEGRKAKEDSGNKPMSKKEMIAQQREYKKKKALKKAQRIKELEQEREDQKVKWQQFNNRAYSKNKKGQVKRSIFASPESVTGKVGVGTCGIADKPMTQYQDTSKYNVRHLMPQ” stands “soluble”.
Under “MGSDKIHHHHHHMSAIHIKYPALTFKAGQRALRHIRERGLQAADVGVLPGAAGGPKPLGIQGLDLALFGEWLPSAPRQRALIGASIGAWRFASACLDDPVAGIRRLGELYTEQDFAKGVTPAEISRSCQRMLDDLLEGRDGQLLANPHYRLNILVVKSHGQLAHDHRGRLGLGLGSVVASNLLGRSRLARHFERIILHDGRAAPPLDTLTDFPSRYLPLDLTNLRHALLASGSIPMVMQGVKDIPGAGAGTYRDGGLLDYHLDLPYRGDDLVLYPHFTDKVVPGWFDKALPWRKGDATRLQNVLLMTPSPQYLAALPYGKLPDRNDFKRFMGDAPGRKRYWYKAIAESQRLGDELLELTATGRLHERLQAL” stands “not soluble”; under “QTIFRVQTPYTHNGYMKTECYAFDFAPDRTLRVLAEAAKVSYKAGKQSESDRKLLGDFLNFCPIISIEGSRMKPYDVNTMLGQLKRAQIEKVVQDGFENGALYNDELLKLTEVELHDFDELKGIIGKTKAMAKSGDIDINHQGLTHEQYEEKERLEKRKKKGLTPEEKKRLDELKAKGDQRREAISILRGISIRMPLMLYGAEMKDEDKELTIDNFANLVDEQSWQEFMPRGVTKAVFRRFKRYYDPDIFREAGKRIREMARMADKFTIEERIGRIASIFSTFRNPDKETVLTPWRVVNMHLGDSIGGYCFMSEDFSTPIALPRYIEHQGITNEVFHPKSIILEINSKSGLYPLYAAYNIYRTRVEEAREKYGDVTRAFALQLWDRTLEENIFVVCKTPMARYITMRTLRGFRDVVTHTEHYPDLIENITSQPDSVVNMLRSGKRFWKINNDENMKIDAIIGNPPYQVMNQGKGNGSDPIYHKFFDLAMVLAPQGTLIHPARFLFNAGKTPKEWNEKMLSDKHYRVVDYWPNSAEVFPTVDVKGGIATSYWNKKMILGPIGMFSAFDELHHILYKVEQTNPLPFSNLVAPRELYRITDELYQEHPDLNGRQSAGHKYSFGANIFDVFPEVFFDEYPQGREEKMACIYGRANKQRCYKWCKRSYITHPENFAKYKVIIPKTNGSGAIGE”, “not soluble”; under “MKKKSVWIKADEGGWEEQKERITTGLESGADCVLVNPGDVEKVRELGNITVAAFARDNKSGADIVVVGKRGEGDGTKPLPQEIPGSFDVNAATLLTDKGVTVGGYVVIKDRSYERFAAEMGKICDYLLVTGTDWKVIPLENLIADLQREKVKIIFGVKSAEEARLAFQTLETGADGVLLDSGNPQEIKDTIKAARELESESTELESAVVTRVEPLGMGDRVCVDTCNLMQRGEGMLIGSQASGMFLVNSESDDSPYVAARPFRVNAGAVHSYIKIGDKTRYLSELQAGDSVTIIDSRGKQREGIVGRIKIESRPLMLIEAKAGDRTLTAILQNAETIKLVGKGGTPISVAKLKKGDEVLVRLEEGARHFGKKIEETIIEKLEHHHHHH”, “soluble”.
On to “MPPRPRMLAAAITAALALGAQAVPAAAADGPAGDSTATTSRGVEIPAFYTPPSELPAADGTLIRHEPLPLALSLPGIDGPLPGRATRLMYKSTDANGEAVAVTGAYVEPAAKWRGDGPRPLVAVAPGTMGQGDQCAASMALEHPLQLNGQTVSVGYEDLSVYRLLLRGVAVVVTDYVGLGTTDRLHTYVNRVDGAHAVLDAVRAARSLDSASVTSDSRVGLFGYSQGGGATAAAAELQPSYAPDVQLAGTYAGAPPADLTEVTKAIDGSDLAGALGWSLNGFLQTEPALRPIADRYINEAGQEALKDLSTMCVGDALFGYGGDSSTDWTRTGQSISDVIRAEPALQSFLAEQRIGSTAPGSPVRVATGVSDDLVPHGQARRLAVDWCGKGGKVTYVPVLIPGVGSGLLNHFAPLLADQGNAIAWLTDRLSGEPAGSNCWSMPVQPLEHHHHHH”, for which the “soluble on expression in E. coli” value was “soluble”.
Under “MSLIRSMTGFGRASNDNGRLGFNVEIKSVNHRYFDLNIKLPRNLISLEEKIRKEVGNKIKRGKVDIFITQNVYDSSTTNVNLNKGLAYNYCECLKQIRDDFNVLDDISVSLISKFPDVITVTQNEEDLDEISSLLLKPINEAVDTMLSMREKEGARLKEDIEGKLTNIEELLVNVEKRAPYTVENYRNKLEERIKDLLVDNQVDEAKLAMEVTIFADKSCIDEEIVRLKSHISQFKSTLSENEPVGRKLDFIVQEMNREANTINSKSNDIDIVHCVLDIKNEIEKIREQIQNIEEGHHHHHH” stands “soluble”.
Next, “MSLFTNLVKMGKKLKNLTKKYQLNKEKIEKFITVRKRLTFLGERPSVVEKPVVVKFGGTSVRYAFEEALELVANLNENTRTIVVVSALAGVTDCLLRLANGDMSALLEIEEIHEELSQELDVQLDHLMYQLHKTLNSKSSFPSKEAFVDEIASFGERFSAELFSEGLKILGINAKAVDSKDILFAKGDYGNAEVDFKKSVYGAGILYRMLRRGIVPVVTGYYGNLNGFRATFGRGGSDYSATSIARLVNAKATLIMSDVEGIYTADPKLVPSAKLIHYISYREAKIAAKLGMKALHHRAIDPVEGRIPVILGKTRDLKFGTLISHKSQGIPVVVHKLIEDHAEVSVVSTRRSFSLPYEVYEEGDFYFKIKIPKEQFLEVLKDIHRRVVENESLRPSYDSELWAWVEGHHHHHH”: “not soluble”.
Next, “MAQRNLDYRLLKDRRNEYGVSQNKLAIACGLSRTYLNLIENGGVTASTKTMRKIFDQLESFNPDLPLTLLFDYVRIRFSTTDVRKIIQELLHLKFEYMLHEDYAFYSYQEQYVMGDIVVMLSHEEDKGVLLELKGRGCRQFETFLLAQKRSWYDFFEDCLKTGGVMKRLDLAINDRVGLLDISDLTKKCQKEECISLFRTFKSYRSGELLKADEKDGMGNTLYIGSLKSEVYFCLYEKDYEQYIKLGIPLDQTETKNRFEIRLKNDRAYHAIQDLLKGRSIESTTFSIINRYLRFADKVEGKRRTNWPLNEQWGRFIGRNRKEIQLTSEPKPYTIERTLNWLGRQVAPTWKMAKELDRLNQTTYIQDMVRNARLSDQHKKILEQQSMAIENLIV”: “not soluble”.
For “MAHHHHHHMLRFTHRALARKAAVKAGSRTSAAAGATAALHAAPAAPQNAVSIPPIPGVRSVRAFRTQKMEALQPQPAAATAGRKAFAAKGSKHVKAALKSRPSKKVKLPKKAAAPSRAQQAQQVKHAKQLKAPKSAAKEISKKAKTAKARK”, the “soluble on expression in E. coli” value was “soluble”.
As for “MGSDKIHHHHHHMTVSNPAKSIRIGTMISGNNGDAATRIREIAGLGFESFEPFFWQTTKGQNLAELGKRCVDAIGDRDITISTLGMFGNPLEETDIDLETLEGWKQCIDNAHHFGASCVAGFTGRLRGKVLTDSLPRYREIWSELAKRAADKGIRIAFENCAMDGNWQSGDWNIAHNPDAWELMFNETPDDNIGLEWEPCHQMVYLIDPLPQIRKWASKIFHVHGKDATIRWDVIREHGIFGKEPFVFMRTPGFGDSNWTNVISELRLAGYSGSIDIEGWHDPVYRDALEMTGQVHALNHLKQARGGDFIDEMAAYGGGDPSLK”, the “soluble on expression in E. coli” value is on record as “not soluble”.
Under “MSAKIYRPAKTAMQSGTAKTNVWVLEFDAEVPRKIDPIMGYTSSSDMKQQVKLTFETQEQAEAYAQRKGIEYRVILPKEATRKVVSYTDNFRFNRTQPWTHLEHHHHHH” stands “soluble”.
Next, “MSLNCFISSYVRGNFYNRGRISAESLRASDDLIFLNVRPNKDGSLSFENPRIFENGKGVTSWEELIKSVRADVKGTKTKLRLGAASGEWKAMVADEAARVAFAKNIKKILEKNKLDGIDLDFEWAETEKEYEDYSLAILKMREVLGDKYVFSVSLHPVCYKISKEAIAAVDFISYQCYGPSPVRFPMEKYCSDIQMALAYGIPKEKLVAGVPFYGVTKDGSKKTEAYFSFVQDGLITGPAQNEVTYKGDVYVFDGQNNIRAKTRYAMDQQLKGMMSWDLATDMPLNDSRSLFKTMVEELGREGHHHHHH”: “soluble”.
Under “MAYVGDDLIDWPVMEKVGLSVAVADAHPLLIPRADYVTRIAGGRGAVREVCDLLLLAQGKLDEAKGQSI” stands “not soluble”; under “MSTEYGCQVTNKFGLPSDDDDEYDDPRELIQKVSQIAAKKKEEKSVKPAQPVKPAAAPVAATKTDGAAGRGRGGRGRGRGGAGRPRDGERVSNENGDRPQGENRRGGPRRGGERGAARPAGRGGRGGFTRENREGEEPKQEVSFEDGQDTRAPRRRGGFTLGGGPSGGRGGGRGGRGRQFDRQSGSDRTGVRSFDKKDGHGKGNWGDQKDELAGETENIAPEGAESTEPEVPREKTAEELAYEAELAVLAKQKTLKEFKAAAKADAPKFNTRKAGEGAADTFGKLVPIKKEVIPDREEDEVVVIHKAPRKQVLDISITFRNDRPERERNDRSERPQRGGPRGGGRGGGRGGQRQGGHGGRNNTPFNASDDAFPALGAK”, “not soluble”.
Turning to “MDLPVMPPVKPMLAKSVAKIPPDMQYEAKWDGFRAIVFRDGTEVELGSRTGKPLTRYFPELVEALRDRLPERCVIDGEIVIARDGRLDFDALTERIHPAESRVRMLAEKTPASFVAFDLLALADDSLLDTPLTERRALLESALSGVTAPVHVAPATTDREVAEQWFEQYEGAGLDGVIAKPLTLRYRQDERAMFKVKHERTADVVVAGYRLHKSGPVVGSLLLGLYDDRGALQHVGVSAAFPMKRRAELVEELEPLRMEDAAGHPWAAWSNEAAHETARLPGAPSRWSGKKDLSWVPLRPERVAEVAYDHMENGARFRHTARFRRWRPDRTPESCTYAQLEEPVSYDLTEILGSRGLEHHHHHH”, the “soluble on expression in E. coli” value is “soluble”.
